Patent publication US20210009697A1 (Five Prime, published 2021)

T1: mouse CSF1R (mouse, UniProt P09581 20-511, limits assumed)
T1 construct: In the mNFS60 proliferation assay the receptor is that of the cell line
T1 sequence (looked up): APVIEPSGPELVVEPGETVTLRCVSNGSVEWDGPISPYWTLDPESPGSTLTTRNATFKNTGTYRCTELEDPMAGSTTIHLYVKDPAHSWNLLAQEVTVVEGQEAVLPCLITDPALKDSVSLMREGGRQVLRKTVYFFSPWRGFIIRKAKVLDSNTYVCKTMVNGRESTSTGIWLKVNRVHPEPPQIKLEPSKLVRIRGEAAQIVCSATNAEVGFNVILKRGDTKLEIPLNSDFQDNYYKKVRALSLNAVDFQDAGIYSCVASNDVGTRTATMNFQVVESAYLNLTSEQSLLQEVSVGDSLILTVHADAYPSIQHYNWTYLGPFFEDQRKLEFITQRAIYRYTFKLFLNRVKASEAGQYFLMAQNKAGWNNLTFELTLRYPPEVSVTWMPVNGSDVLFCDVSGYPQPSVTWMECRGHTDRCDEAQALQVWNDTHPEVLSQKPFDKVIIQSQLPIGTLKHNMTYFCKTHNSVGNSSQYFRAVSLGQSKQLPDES

T2: CTLA-4 (human, UniProt P16410 37-162, limits assumed)
T2 construct: also called cytotoxic T lymphocyte antigen-4
T2 sequence (looked up): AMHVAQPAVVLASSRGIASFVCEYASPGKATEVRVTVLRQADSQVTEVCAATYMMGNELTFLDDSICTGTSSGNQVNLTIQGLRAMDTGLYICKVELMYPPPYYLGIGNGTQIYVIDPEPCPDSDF

T3: BTLA (UniProt Q7Z6A9 31-151, limits assumed)
T3 construct: also called B- and T-lymphocyte attenuator
T3 sequence (looked up): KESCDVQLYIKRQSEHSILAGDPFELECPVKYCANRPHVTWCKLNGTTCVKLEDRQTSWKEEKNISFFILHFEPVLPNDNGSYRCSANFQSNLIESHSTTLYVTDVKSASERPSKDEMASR

T4: ICOS (UniProt Q9Y6W8 21-141, limits assumed)
T4 construct: also called inducible co-stimulator
T4 sequence (looked up): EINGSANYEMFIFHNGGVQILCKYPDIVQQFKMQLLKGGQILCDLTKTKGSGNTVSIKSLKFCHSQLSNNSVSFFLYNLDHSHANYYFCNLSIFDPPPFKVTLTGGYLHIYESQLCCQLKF

B1: Cabiralizumab (antibody, human IgG4 S228P, kappa, V domains shown)
VH: QVQLVQSGAEVKKPGSSVKVSCKASGYTFTDNYMIWVRQAPGQGLEWMGDINPYNGGTTFNQKFKGRVTITADKSTSTAYMELSSLRSEDTAVYYCARESPYFSNLYVMDYWGQGTLVTVSS
VL: EIVLTQSPATLSLSPGERATLSCKASQSVDYDGDNYMNWYQQKPGQAPRLLIYAASNLESGIPARFSGSGSGTDFTLTISSLEPEDFAVYYCHLSNEDLSTFGGGTKVEIKR
notes: also called FPA008; HuAb1
B2: Nivolumab (antibody, human IgG4 S228P, kappa, V domains shown)
VH: QVQLVESGGGVVQPGRSLRLDCKASGITFSNSGMHWVRQAPGKGLEWVAVIWYDGSKRYYADSVKGRFTISRDNSKNTLFLQMNSLRAEDTAVYYCATNDDYWGQGTLVTVSS
VL: EIVLTQSPATLSLSPGERATLSCRASQSVSSYLAWYQQKPGQAPRLLIYDASNRATGIPARFSGSGSGTDFTLTISSLEPEDFAVYYCQQSSNWPRTFGQGTKVEIKR
notes: also called Opdivo; 5C4

Assays:
[1] = target: T5, human colony stimulating factor 1 receptor (CSF1R) (human, UniProt P07333 20-506, limits assumed); assay: not described
T5 construct: In the monocyte assays the receptor is the endogenous one on primary human monocytes; also called hCSF1R
T5 sequence (P07333 20-506 limits assumed): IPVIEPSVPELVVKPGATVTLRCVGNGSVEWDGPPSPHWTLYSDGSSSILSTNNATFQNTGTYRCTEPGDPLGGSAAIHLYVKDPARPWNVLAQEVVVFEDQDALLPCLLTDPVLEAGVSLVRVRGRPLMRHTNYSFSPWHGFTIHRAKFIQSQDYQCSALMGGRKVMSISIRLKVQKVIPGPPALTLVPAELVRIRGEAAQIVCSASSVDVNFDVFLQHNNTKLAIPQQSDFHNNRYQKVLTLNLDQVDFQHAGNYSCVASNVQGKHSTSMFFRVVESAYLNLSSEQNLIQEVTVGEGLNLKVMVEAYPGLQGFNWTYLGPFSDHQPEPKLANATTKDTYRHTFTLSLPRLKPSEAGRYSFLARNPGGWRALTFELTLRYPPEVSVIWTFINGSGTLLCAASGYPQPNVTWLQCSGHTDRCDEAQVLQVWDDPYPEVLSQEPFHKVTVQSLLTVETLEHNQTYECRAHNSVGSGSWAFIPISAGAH

[2] = target: T1, mouse CSF1R; assay: not described
[3] = target: T2, CTLA-4; assay: in vitro, method not described
[4] = target: T3, BTLA; assay: in vitro, method not described
[5] = target: T4, ICOS; assay: in vitro, method not described

Binder	binding result [1]	binding result [2]	binding result [3]	binding result [4]	binding result [5]
B1	binds	no binding			
B2			no binding	no binding	no binding
